In patent US20140220033A1, “Administration of an Anti-Activin-A Compound to a Subject” (Santa Maria Biotherapeutics, Inc., priority 2013, published 2014):

Experiments:
[1] = tested on: TOV-21G ovarian cancer xenografts; experiment: TOV-21G ovarian cancer xenograft growth in nude mice; format: in vivo, mouse
Protocol: (§1) 5×10^6 TOV-21G ovarian cancer cells were implanted subcutaneously into individual female athymic nu/nu mice (Harlan). Treatment was initiated at day 12 after tumor implantation, when the average tumor volume reached approximately 150 mm^3. The mice received PBS, sActRIIB (30 mg/kg, SC, 1×/week) or activin-A antibody (30 mg/kg, SC, 2×/week). In a separate chemotherapy combination experiment, the mice were treated with PBS, sActRIIB (10 mg/kg, SC, 1×/week), 5-FU (50 mg/kg, IP, 3 cycles, 4 daily injections per cycle) or sActRIIB and 5-FU combination at the same doses above.
For all xenograft experiments, the tumor sizes were measured longitudinally by using an electronic caliper Immediately prior to the 1st dose, the tumor-bearing mice were randomized to ensure even distribution in tumor sizes across different groups. Tumor volumes (mm^3) were calculated as tumor length (mm)×tumor width (mm)×tumor height (mm) Tumor weights were determined by necropsy.
In another experiment, athymic nude mice received TOV-21G xenografts in the abdominal flank. After 14 days, subcutaneous hu-sActRIIB-Fc was administered weekly alone or in combination with 5-FU.

VEGF [2] = experiment: Serum VEGF in inh-KO mice (ELISA); format: in vivo, mouse; settings: inh-KO mice with advanced ovarian and testicular tumors; single dose; FIG. 8A
Protocol: (§2) 12-week-old female and 8-week-old male inh-KO mice with fully established ovarian or testicular tumors received a single injection of PBS or sActRIIB (30 mg/kg, SC). As a control, age-matched wild-type littermates received a single injection of PBS. Ovarian and testicular organ weights were determined by necropsy 14 days after the injection.
(§3) The serum VEGF levels in inh-KO mice were measured by using immunoassay kit (R&D Systems), and the levels of human VEGF and Ang-1 in cell line culture medium were quantified using ELISA kits purchased from Invitrogen (VEGF) and R&D Systems (Ang-1), by following the manufacturers' recommended protocols.

IGFPB-2 = experiment: Western blot of IGFBP-2 in ovarian tumors of inh-KO mice; format: in vivo, mouse; settings: FIG. 8D
Protocol: as §2
(§4) Protein extracts were prepared from cell cultures or tissues in T-PER tissue protein extraction reagent (Pierce) containing a mixture of protease inhibitors (Roche). A pool of 50 μg total protein for each group containing equal amounts of protein extract isolated from individual animals was separated by NuPAGE 4-12% Bis-Tris gel (Invitrogen) and transferred to PVDF. The membranes were probed with primary antibodies against total Smad2, p-Smad2 or E-cadherin (1:1000; Cell Signaling), endoglin, osteopontin (1:500; R&D Systems), IGFBP-1, IGFBP-2 (1:500; Abcam) followed by HRP-conjugated secondary antibody (1:2000; Cell Signaling). The membranes were stripped and re-probed with antibody against α-tubulin (1:1000; Cell Signaling).

[3] = tested on: ovarian tumors in inh-KO mice; experiment: Light microscopy (H&E) of ovaries of inh-KO mice; format: in vivo, mouse; settings: female inh-KO mice; FIG. 7A
Protocol: as §2
Testes and ovaries from inh-KO mice were fixed with Zinc-formalin. Tissue sections were subjected to H&E staining and then examined with a Nikon Eclipse 90i microscope.

VEGF [4] = experiment: VEGF release into culture medium (ELISA); format: cell-based, human; settings: TOV21G, MRC-5, CCD-Lu and TPH-1 cells treated with activin-A, without or with sActRIIB; FIG. 17A
Protocol: as §3

IGFBP-1 = experiment: Western blot of IGFBP-1 in ovarian tumors of inh-KO mice; format: in vivo, mouse; settings: FIG. 8D
Protocol: as §2, §4

activin-A = biological target: T1, activin-A (Mus musculus, UniProt Q04998); experiment: Serum activin-A levels in inh-KO mice (ELISA); format: in vivo; settings: single dose 30 mg/kg SC
T1 construct: from tissue; host or cells: serum of inhibin-alpha knockout (inh-KO) mice and wild-type littermates
T1 sequence (Q04998 309-424): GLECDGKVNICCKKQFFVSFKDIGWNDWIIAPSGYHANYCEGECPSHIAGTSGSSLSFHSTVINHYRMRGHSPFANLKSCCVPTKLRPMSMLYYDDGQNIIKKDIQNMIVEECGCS
Protocol: as §2
All serum samples from ovarian cancer patients and healthy subjects were collected under informed consent and were purchased from Bioreclamation, Inc. The serum samples were diluted in buffer (DY995, R&D Systems) and pretreated overnight at 4° C. with 4 M urea (Sigma) to dissociate any protein bound to activin-A. The samples were then transferred to 96 well plates pre-coated with an activin-A monoclonal antibody. After 2 hr incubation at room temperature and a washing step (0.05% Tween 20 in DPBS), a biotin-labeled activin-A monoclonal antibody was added for 1 hr at room temperature. […] An acidic stopping solution (KPL) was added and the degree of enzymatic turnover of the substrate was determined by wavelength absorbance measurement at 450 nm. The absorbance measured is directly proportional to the concentration of activin-A present. A standard curve of absorbance versus activin-A concentration was used to determine the amount of Activin-A in the test sample. Serum activin-A levels in inh-KO mice were measured by using ELISA.

caspase-3 = experiment: Active caspase-3 immunostaining in TOV-21G xenograft tumor sections; format: in vivo, mouse; settings: FIG. 15C
Protocol: as §1
Zinc-formalin fixed paraffin tumor tissue sections of 4 μm in thickness were prepared. The sections were subjected to antigen retrieval by microwave 3 min in Unmask solution (Vector H-3300) followed by incubation in 10 μg/ml Proteinase-K for 20 min and in 1% H2O2 in dH2O for 10 min at room temperature. The sections were further incubated in 0.1% Tween-20 in PBS for 3 min to permeabilize the cell membrane and in goat serum for 30 min to block non-specific binding. The sections were then incubated at room temperature with specific primary antibody for 3 hours followed by incubation in biotinylated or fluorescently labeled secondary antibody. […] The immunostained tissue sections were analyzed and photographed using a Nikon Eclipse 90i microscope equipped with DS-Ril camera. […]

B1: sActRIIB: extracellular domain of human activin type-2B receptor fused to IgG2 Fc, expressed in CHO cells; sequence in the 26th table (protein)
chain: ETRWCIYYNANWELERTNQGLERCEGEQDKRLHCYASWRNSSGTIELVKKGCWLDDFNCYDRQECVATEENPQVYFCCCEGNFCNERFTHLPEAGGPEVTYEPPPTAPTGGGGSVECPPCPAPPVAGPSVFLFPPKPKDTLMISRTPEVTCVVVDVSHEDPEVQFNWYVDGVEVHNAKTKPREEQFNSTFRVVSVLTVVHQDWLNGKEYKCKVSNKGLPAPIEKTISKTKGQPREPQVYTLPPSREEMTKNQVSLTCLVKGFYPSDIAVEWESNGQPENNYKTTPPMLDSDGSFFLYSKLTVDKSRWQQGNVFSCSVMHEALHNHYTQKSLSLSPGK
modifications: left off: a dimerising Fc or GST
B1 was tested, and the tumor growth reduction ([1]; 52 days after tumor cell injection, versus vehicle-treated tumor-bearing group, p<0.0001, weekly SC hu-sActRIIB-Fc from day 14, alone or with 5-FU) was 43%, the “rate of tumor growth of TOV-21G xenografts” value ([1]; chemotherapy combination experiment, sActRIIB 10 mg/kg SC 1x/week, 5-FU 50 mg/kg IP 3 cycles, alone or together, FIG. 13) was “decreased the rate of tumor growth significantly” and the “growth of TOV-21G ovarian cancer xenografts” value ([1]; nude mice, sActRIIB 30 mg/kg SC 1x/week or activin-A antibody 30 mg/kg SC 2x/week from day 12, FIG. 10B) was “significantly inhibited the growth”. For the same molecule, the “circulating VEGF levels” value (VEGF [2]) was “rapidly lowered the elevated VEGF to WT control levels”, the “IGFPB-2 induction (Western blot)” value (IGFPB-2) was “abolished completely” and the “ovarian morphology (light microscopy)” value [3] was “the ovaries were normal in size and contained many recognizable follicles, minimal tumor cell invasion and few hemorrhagic lesions”. The “release of VEGF into the culture medium” value (VEGF [4]) was “blocked completely”, the “IGFBP-1 induction (Western blot)” value (IGFBP-1) was “abolished completely” and the “serum activin-A levels” value (activin-A; inh-KO mice with established gonadal tumors, within one day after administration, FIG. 2A, 2B) was “reduced the elevated activin-A in the inh-KO mice to normal control levels”. The “duration of activin-A-neutralizing effect” value (activin-A; inh-KO mice) was “persisted throughout the 14-day study period” and the “active caspase-3 in TOV-21G tumors” value (caspase-3) was “profound increases”.
